Data as given in US20040072185A1 (published 2004).

Biological target: the molecule itself
Experiment: Western blotting of the microsomal fraction of transfected cells; self-association
Protocol: The truncated SERCA1 protein could be detected in the microsomal fraction of transiently transfected cells, by western blotting. […] Immunohistochemical analyses of the transfected cells were carried out with the anti-SERCA1-T antibody and made it possible to detect a reticular location in the cells transfected with S1T+4.

B1: S1T+4 truncated SERCA1 protein (other)
chain: MEAAHAKTTEECLAYFGVSETTGLTPDQVKRNLEKYGLNELPAEEGKTLWELVIEQFEDLLVRILLLAACISFVLAWFEEGEETITAFVEPFVILLILIANAIVGVWQERNAENAIEALKEYEPEMGKVYRADRKSVQRIKARDIVPGDIVEVAVGDKVPADIRILAIKSTTLRVDQSILTGESVSVIKHTEPVPDPRAVNQDKKNMLFSGTNIAAGKALGIVATTGVGTEIGKIRDQMAATEQDKTPLQQKLDEFGEQLSKVISLICVAVWLINIGHFNDPVHGGSWFRGAIYYFKIAVALAVAAIPEGLPAVITTCLALGTRRMAKKNAIVRSLPSVETLGCTSVICSDKTGTLTTNQMSVCKMFIIDKVDGDICLLNEFSITGSTYAPEGEVPKVSMRRSARPPRQHSPPWWRR
notes: Splice variant of SERCA1 lacking exon 11, expected size 46 kDa; Expressed in transfected cells or endogenous in cell lines; also called SERCA1-T
Q: Does B1 bind?
A: Result: binds
